In PMC9046087, “Structural basis of tethered agonism of the adhesion GPCRs ADGRD1 and ADGRF1” (Nature, 2022):
Positions count from the first letter of the chain named.

B1: F716^5.36bA (protein, UniProt Q6QNK2 26-874, looked up, variant F716A)
Adhesion G-protein coupled …: VYSRSQDHPGFQVLASASHYWPLENVDGIHELQDTTGDIVEGKVNKGIYLKEEKGVTLLYYGRYNSSCISKPEQCGPEGVTFSFFWKTQGEQSRPIPSAYGGQVISNGFKVCSSGGRGSVELYTRDNSMTWEASFSPPGPYWTHVLFTWKSKEGLKVYVNGTLSTSDPSGKVSRDYGESNVNLVIGSEQDQAKCYENGAFDEFIIWERALTPDEIAMYFTAAIGKHALLSSTLPSLFMTSTASPVMPTDAYHPIITNLTEERKTFQSPGVILSYLQNVSLSLPSKSLSEQTALNLTKTFLKAVGEILLLPGWIALSEDSAVVLSLIDTIDTVMGHVSSNLHGSTPQVTVEGSSAMAEFSVAKILPKTVNSSHYRFPAHGQSFIQIPHEAFHRHAWSTVVGLLYHSMHYYLNNIWPAHTKIAEAMHHQDCLLFATSHLISLEVSPPPTLSQNLSGSPLITVHLKHRLTRKQHSEATNSSNRVFVYCAFLDFSSGEGVWSNHGCALTRGNLTYSVCRCTHLTNFAILMQVVPLELARGHQVALSSISYVGCSLSVLCLVATLVTFAVLSSVSTIRNQRYHIHANLSFAVLVAQVLLLISFRLEPGTTPCQVMAVLLHYFFLSAFAWMLVEGLHLYSMVIKVFGSEDSKHRYYYGMGWGFPLLICIISLSFAMDSYGTSNNCWLSLASGAIWAAVAPALFVIVVNIGILIAVTRVISQISADNYKIHGDPSAFKLTAKAVAVLLPILGTSWVFGVLAVNGCAVVFQYMFATLNSLQGLFIFLFHCLLNSEVRAAFKHKTKVWSLTSSSARTSNAKPFHSDLMNGTRPGMASTKLSPWDKSSHSAHRVDLSAV
B2: H656^3.53bA (protein, UniProt Q6QNK2 26-874, looked up, variant H656A)
Adhesion G-protein coupled …: B1 Adhesion G-protein coupled … with H631A, A691F
B3: K760^6.40bA (protein, UniProt Q6QNK2 26-874, looked up, variant K760A)
Adhesion G-protein coupled …: B1 Adhesion G-protein coupled … with A691F, K735A
B4: W773^6.53bA (protein, UniProt Q6QNK2 26-874, looked up, variant W773A)
Adhesion G-protein coupled …: B1 Adhesion G-protein coupled … with A691F, W748A
B5: H605^2.50bA (protein, UniProt Q6QNK2 26-874, looked up, variant H605A)
Adhesion G-protein coupled …: B1 Adhesion G-protein coupled … with H580A, A691F
B6: Q798^7.49bA (protein, UniProt Q6QNK2 26-874, looked up, variant Q798A)
Adhesion G-protein coupled …: B1 Adhesion G-protein coupled … with A691F, Q773A

Test system: ADGRD1
Assay: Cell-surface expression by flow cytometry, ADGRD1
Format: cell-based, human
Conditions: ADGRD1 constructs (pD1 Gs part of table), anti-Flag antibody, three independent measurements in duplicate
Experimental: The wild-type ADGRD1 and ADGRF1 and mutants used in functional studies were constructed into a pTT5 vector with a Flag tag at the N terminus for receptor expression measurement. The basal activity of ADGRD1 and ADGRF1 in mediating Gs signalling was measured by a cAMP accumulation assay using a LANCE Ultra cAMP detection kit (PerkinElmer) following the manufacturer’s instruction. In brief, 2 ml HEK293F cells (Invitrogen; cells were routinely tested for mycoplasma contamination) at a density of 1.2 × 10^6 cells per ml were transiently transfected with 2,000 ng plasmid of the wild-type or mutant receptor and cultured at 37 °C for 48 h with 5% CO2 atmosphere in a shaker shaking at 220 rpm. After collection, the cell-surface expression of the receptors was measured by incubating 10 μl cells with 15 μl monoclonal anti-Flag M2-FITC antibody (Sigma; 1:120 diluted in TBS supplemented with 4% BSA and 20% viability staining solution 7-AAD (Invitrogen)) at 4 °C for 20 min. After incubation, 175 μl TBS buffer was added and the fluorescent signal was measured using a flow cytometry reader (Guava easyCyte HT, Millipore).

| Molecule | Cell-surface expression (% of WT) |
| --- | --- |
| B1 | 98 ± 3 % of WT |
| B2 | 86 ± 10 % of WT |
| B3 | 126 ± 21 % of WT |
| B4 | 69 ± 2 % of WT |
| B5 | 102 ± 7 % of WT |
| B6 | 96 ± 18 % of WT |
